This is an account of results in patent US20180064825A1 (INSERM INSTITUT NATIONAL DE LA SANTE ET DE LA RECHERCHE …, published 2018).

The target of experiment [1] is T1, human PD-L1 (Programmed Cell Death 1 Ligand 1) (human, UniProt Q9NZQ7 19-290).
T1 construct: whole, on cells; Endogenous PD-L1 on breast cancer cell lines; also called CD274; PDCD1LG1
The experiment can be described thus: Scatchard analysis on cells (MDA-MB-231 used for binding assays), 3-3000 pM ^111In-PD-L1.3.1, 4 h on ice, gamma counter; 111In-labeled antibody; Scatchard affinity on MDA-MB-231 cells. On the procedure: (§1) Cells were cultured to confluency in six-well plates and were incubated for 4 h on ice with increasing concentrations ¹¹¹In-PD-L1.3.1 (3-3000 pM) in 1 ml RPMI1640 containing 0.5% BSA. Non-specific binding was determined by co-incubation with 100 nM PD-L1.3.1. After incubation, cells were washed with PBS and the cell-associated activity was measured in a shielded well-type gamma counter. The specific binding (total binding−nonspecific binding) was plotted against the bound/free ratio. Data were analyzed by linear regression to determine PD-L1 receptor density per cell and to determine the Kd of ¹¹¹In-PD-L1.3.1.

Experiment [2] addresses T1, human PD-L1 (Programmed Cell Death 1 …). The experiment can be described thus: saturation binding / Scatchard analysis on cells, 3-3000 pM ^111In-PD-L1.3.1 in 1 ml, 4 h on ice, non-specific binding (100 nM PD-L1.3.1) subtracted; the panel does not name the cell line (MDA-MB-231 cells were used in subsequent binding assays). On the procedure: as §1
The target is the same in experiment [3]. The experiment can be described thus: competition on MDA-MB-231 cells, 4 h on ice; unlabeled PD-L1.3.1 (1-1000 pM) against 20 pM ^111In-PD-L1.3.1 as competitor; gamma counter; unlabeled antibody; competition IC50 on MDA-MB-231 cells. On the procedure: MDA-MB-231 cells were cultured to confluency in six-well plates. The 50% inhibitory concentration (IC₅₀) of PD-L1.3.1 blocking of ¹¹¹In-PD-L1.3.1 binding was determined by incubating the cells for 4 h on ice in 1 ml RPMI1640 0.5% BSA, containing 20 pM ¹¹¹In-PD-L1.3.1 (1 kBq) and increasing concentrations of unlabeled PD-L1.3.1 (1-1000 pM). After incubation, cells were washed with PBS and the cell-associated activity was measured in a gamma counter. The IC₅₀ was defined as the antibody concentration that was required to inhibit binding of the radio labeled antibody by 50%. IC₅₀ values were calculated using GraphPad Prism.

T1 sequence (Q9NZQ7 19-290): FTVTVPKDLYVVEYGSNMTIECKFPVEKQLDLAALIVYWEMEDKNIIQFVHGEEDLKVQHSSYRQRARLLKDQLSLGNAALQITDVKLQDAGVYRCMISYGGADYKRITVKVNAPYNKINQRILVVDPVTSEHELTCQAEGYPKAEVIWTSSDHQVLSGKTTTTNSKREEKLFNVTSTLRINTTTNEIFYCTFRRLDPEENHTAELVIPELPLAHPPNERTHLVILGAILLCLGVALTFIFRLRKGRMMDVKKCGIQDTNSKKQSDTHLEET

B1: ^111In-DTPA-PD-L1.3.1 (antibody, V domains shown)
VH: EVQLQQSGTELVKPGASVKLSCTTSGFNIQDTYMHWVKQRPEQGLEWIGWIDPANGNTKYDPKFQGKATIIADTSSNTAYLQLRGLTSEDTAVYYCARSGVSTAHFDYWGQGTTLTVSS
VL: QIVLSQSPAILSASPGEKVTMTCRASSSVSFMHWYQQKPGSSPKPWIYATSNLASGVPTRFSGSGSGTSYSLTLSRVEAEDAATYYCQQWSSYPRTFGGGTKLEIK
modifications: ITC-DTPA conjugated and chelating ^111In; residues and chain not stated
Regarding B1, the Kd – broadly, the concentration at which binding is half-saturated – in experiment [1] amounted to 970 pM; in experiment [2] it was 1000 pM.

B2: PD-L1.3.1 antibody (murine monoclonal IgG1, unlabeled) (antibody, V domains shown)
VH: B1 VH
VL: B1 VL
notes: also called PD-L1.3.1 mAb; unlabeled PD-L1.3.1
On to B2, for which the IC50 (in general, the concentration that gives 50% inhibition) in experiment [3] came out at 150 pM.
